Assays:
[1] = biological target: Bluetongue virus (BTV) receptor-binding outer-layer protein VP2, as trimer on the virion (bluetongue virus (BTV)); test: cryo-EM structure
[2] = biological target: Bluetongue virus (BTV) membrane penetration outer-layer protein VP5, as trimer on the virion (bluetongue virus (BTV)); test: cryo-EM structure
[3] = biological target: Bluetongue virus (BTV) membrane penetration outer-layer protein VP5, as trimer on the virion (bluetongue virus (BTV)); test: […]
[4] = biological target: Bluetongue virus (BTV) middle-layer core protein VP7, as trimer on the virion (bluetongue virus (BTV)); test: cryo-EM structure

“Bluetongue virus (BTV) receptor-binding outer-layer protein VP2, as trimer on the virion (natural protein)” was tested, and the stoichiometry N [1] was 3.

“Bluetongue virus (BTV) membrane penetration outer-layer protein VP5, as trimer on the virion (natural protein)” was tested, and the stoichiometry N [2] was 3 and the stoichiometry N [3] was 3.

In the case of “Bluetongue virus (BTV) middle-layer core protein VP7, as trimer on the virion (natural protein)”, the stoichiometry N [4] was 3.
